# Data reported in PMC3145977, “Thermostabilisation of an Agonist-Bound Conformation of the Human Adenosine A2A Receptor” (Journal of Molecular Biology, 2011).
# B1: GL21: A2AR mutant L48A-Q89A-A54L (protein, UniProt P29274 1-412, looked up, variant L48A Q89A A54L)
# Adenosine receptor A2a: MPIMGSSVYITVELAIAVLAILGNVLVCWAVWLNSNLQNVTNYFVVSAAAADILVGVLAIPFAITISTGFCAACHGCLFIACFVLVLTASSIFSLLAIAIDRYIAIRIPLRYNGLVTGTRAKGIIAICWVLSFAIGLTPMLGWNNCGQPKEGKNHSQGCGEGQVACLFEDVVPMNYMVYFNFFACVLVPLLLMLGVYLRIFLAARRQLKQMESQPLPGERARSTLQKEVHAAKSLAIIVGLFALCWLPLHIINCFTFFCPDCSHAPLWLMYLAIVLSHTNSVVNPFIYAYRIREFRQTFRKIIRSHVLRQQEPFKAAGTSARVLAAHGSDGEQVSLRLNGHPPGVWANGSAPHPERRPNGYALGLVSGGSAQESQGNTGLPDVELLSHELKGVCPEPPGLDDPLAQDGAGVS
# B2: GL6: A2AR mutant L48A-F62A (protein, UniProt P29274 1-412, looked up, variant L48A F62A)
# Adenosine receptor A2a: MPIMGSSVYITVELAIAVLAILGNVLVCWAVWLNSNLQNVTNYFVVSAAAADIAVGVLAIPAAITISTGFCAACHGCLFIACFVLVLTQSSIFSLLAIAIDRYIAIRIPLRYNGLVTGTRAKGIIAICWVLSFAIGLTPMLGWNNCGQPKEGKNHSQGCGEGQVACLFEDVVPMNYMVYFNFFACVLVPLLLMLGVYLRIFLAARRQLKQMESQPLPGERARSTLQKEVHAAKSLAIIVGLFALCWLPLHIINCFTFFCPDCSHAPLWLMYLAIVLSHTNSVVNPFIYAYRIREFRQTFRKIIRSHVLRQQEPFKAAGTSARVLAAHGSDGEQVSLRLNGHPPGVWANGSAPHPERRPNGYALGLVSGGSAQESQGNTGLPDVELLSHELKGVCPEPPGLDDPLAQDGAGVS
# B3: GL27: A2AR mutant L48A-Q89A-T65A-F83A (protein, UniProt P29274 1-412, looked up, variant L48A Q89A T65A F83A)
# Adenosine receptor A2a: MPIMGSSVYITVELAIAVLAILGNVLVCWAVWLNSNLQNVTNYFVVSAAAADIAVGVLAIPFAIAISTGFCAACHGCLFIACAVLVLTASSIFSLLAIAIDRYIAIRIPLRYNGLVTGTRAKGIIAICWVLSFAIGLTPMLGWNNCGQPKEGKNHSQGCGEGQVACLFEDVVPMNYMVYFNFFACVLVPLLLMLGVYLRIFLAARRQLKQMESQPLPGERARSTLQKEVHAAKSLAIIVGLFALCWLPLHIINCFTFFCPDCSHAPLWLMYLAIVLSHTNSVVNPFIYAYRIREFRQTFRKIIRSHVLRQQEPFKAAGTSARVLAAHGSDGEQVSLRLNGHPPGVWANGSAPHPERRPNGYALGLVSGGSAQESQGNTGLPDVELLSHELKGVCPEPPGLDDPLAQDGAGVS
# B4: GL22: A2AR mutant L48A-Q89A-F62A (protein, UniProt P29274 1-412, looked up, variant L48A Q89A F62A)
# Adenosine receptor A2a: MPIMGSSVYITVELAIAVLAILGNVLVCWAVWLNSNLQNVTNYFVVSAAAADIAVGVLAIPAAITISTGFCAACHGCLFIACFVLVLTASSIFSLLAIAIDRYIAIRIPLRYNGLVTGTRAKGIIAICWVLSFAIGLTPMLGWNNCGQPKEGKNHSQGCGEGQVACLFEDVVPMNYMVYFNFFACVLVPLLLMLGVYLRIFLAARRQLKQMESQPLPGERARSTLQKEVHAAKSLAIIVGLFALCWLPLHIINCFTFFCPDCSHAPLWLMYLAIVLSHTNSVVNPFIYAYRIREFRQTFRKIIRSHVLRQQEPFKAAGTSARVLAAHGSDGEQVSLRLNGHPPGVWANGSAPHPERRPNGYALGLVSGGSAQESQGNTGLPDVELLSHELKGVCPEPPGLDDPLAQDGAGVS
# B5: GL24: A2AR mutant L48A-Q89A-F79A (protein, UniProt P29274 1-412, looked up, variant L48A Q89A F79A)
# Adenosine receptor A2a: MPIMGSSVYITVELAIAVLAILGNVLVCWAVWLNSNLQNVTNYFVVSAAAADIAVGVLAIPFAITISTGFCAACHGCLAIACFVLVLTASSIFSLLAIAIDRYIAIRIPLRYNGLVTGTRAKGIIAICWVLSFAIGLTPMLGWNNCGQPKEGKNHSQGCGEGQVACLFEDVVPMNYMVYFNFFACVLVPLLLMLGVYLRIFLAARRQLKQMESQPLPGERARSTLQKEVHAAKSLAIIVGLFALCWLPLHIINCFTFFCPDCSHAPLWLMYLAIVLSHTNSVVNPFIYAYRIREFRQTFRKIIRSHVLRQQEPFKAAGTSARVLAAHGSDGEQVSLRLNGHPPGVWANGSAPHPERRPNGYALGLVSGGSAQESQGNTGLPDVELLSHELKGVCPEPPGLDDPLAQDGAGVS
# B6: GL25: A2AR mutant L48A-Q89A-T65A-A50L (protein, UniProt P29274 1-412, looked up, variant L48A Q89A T65A A50L)
# Adenosine receptor A2a: MPIMGSSVYITVELAIAVLAILGNVLVCWAVWLNSNLQNVTNYFVVSAALADIAVGVLAIPFAIAISTGFCAACHGCLFIACFVLVLTASSIFSLLAIAIDRYIAIRIPLRYNGLVTGTRAKGIIAICWVLSFAIGLTPMLGWNNCGQPKEGKNHSQGCGEGQVACLFEDVVPMNYMVYFNFFACVLVPLLLMLGVYLRIFLAARRQLKQMESQPLPGERARSTLQKEVHAAKSLAIIVGLFALCWLPLHIINCFTFFCPDCSHAPLWLMYLAIVLSHTNSVVNPFIYAYRIREFRQTFRKIIRSHVLRQQEPFKAAGTSARVLAAHGSDGEQVSLRLNGHPPGVWANGSAPHPERRPNGYALGLVSGGSAQESQGNTGLPDVELLSHELKGVCPEPPGLDDPLAQDGAGVS
# B7: GL1: A2AR mutant L48A-V12A (protein, UniProt P29274 1-412, looked up, variant L48A V12A)
# Adenosine receptor A2a: MPIMGSSVYITAELAIAVLAILGNVLVCWAVWLNSNLQNVTNYFVVSAAAADIAVGVLAIPFAITISTGFCAACHGCLFIACFVLVLTQSSIFSLLAIAIDRYIAIRIPLRYNGLVTGTRAKGIIAICWVLSFAIGLTPMLGWNNCGQPKEGKNHSQGCGEGQVACLFEDVVPMNYMVYFNFFACVLVPLLLMLGVYLRIFLAARRQLKQMESQPLPGERARSTLQKEVHAAKSLAIIVGLFALCWLPLHIINCFTFFCPDCSHAPLWLMYLAIVLSHTNSVVNPFIYAYRIREFRQTFRKIIRSHVLRQQEPFKAAGTSARVLAAHGSDGEQVSLRLNGHPPGVWANGSAPHPERRPNGYALGLVSGGSAQESQGNTGLPDVELLSHELKGVCPEPPGLDDPLAQDGAGVS
# B8: GL29: A2AR mutant L48A-Q89A-T65A- S263A (protein, UniProt P29274 1-412, looked up, variant L48A Q89A T65A S263A)
# Adenosine receptor A2a: MPIMGSSVYITVELAIAVLAILGNVLVCWAVWLNSNLQNVTNYFVVSAAAADIAVGVLAIPFAIAISTGFCAACHGCLFIACFVLVLTASSIFSLLAIAIDRYIAIRIPLRYNGLVTGTRAKGIIAICWVLSFAIGLTPMLGWNNCGQPKEGKNHSQGCGEGQVACLFEDVVPMNYMVYFNFFACVLVPLLLMLGVYLRIFLAARRQLKQMESQPLPGERARSTLQKEVHAAKSLAIIVGLFALCWLPLHIINCFTFFCPDCAHAPLWLMYLAIVLSHTNSVVNPFIYAYRIREFRQTFRKIIRSHVLRQQEPFKAAGTSARVLAAHGSDGEQVSLRLNGHPPGVWANGSAPHPERRPNGYALGLVSGGSAQESQGNTGLPDVELLSHELKGVCPEPPGLDDPLAQDGAGVS
# B9: GL5: A2AR mutant L48A-V57A (protein, UniProt P29274 1-412, looked up, variant L48A V57A)
# Adenosine receptor A2a: MPIMGSSVYITVELAIAVLAILGNVLVCWAVWLNSNLQNVTNYFVVSAAAADIAVGALAIPFAITISTGFCAACHGCLFIACFVLVLTQSSIFSLLAIAIDRYIAIRIPLRYNGLVTGTRAKGIIAICWVLSFAIGLTPMLGWNNCGQPKEGKNHSQGCGEGQVACLFEDVVPMNYMVYFNFFACVLVPLLLMLGVYLRIFLAARRQLKQMESQPLPGERARSTLQKEVHAAKSLAIIVGLFALCWLPLHIINCFTFFCPDCSHAPLWLMYLAIVLSHTNSVVNPFIYAYRIREFRQTFRKIIRSHVLRQQEPFKAAGTSARVLAAHGSDGEQVSLRLNGHPPGVWANGSAPHPERRPNGYALGLVSGGSAQESQGNTGLPDVELLSHELKGVCPEPPGLDDPLAQDGAGVS
# B10: GL4: A2AR mutant L48A-A54L (protein, UniProt P29274 1-412, looked up, variant L48A A54L)
# Adenosine receptor A2a: MPIMGSSVYITVELAIAVLAILGNVLVCWAVWLNSNLQNVTNYFVVSAAAADILVGVLAIPFAITISTGFCAACHGCLFIACFVLVLTQSSIFSLLAIAIDRYIAIRIPLRYNGLVTGTRAKGIIAICWVLSFAIGLTPMLGWNNCGQPKEGKNHSQGCGEGQVACLFEDVVPMNYMVYFNFFACVLVPLLLMLGVYLRIFLAARRQLKQMESQPLPGERARSTLQKEVHAAKSLAIIVGLFALCWLPLHIINCFTFFCPDCSHAPLWLMYLAIVLSHTNSVVNPFIYAYRIREFRQTFRKIIRSHVLRQQEPFKAAGTSARVLAAHGSDGEQVSLRLNGHPPGVWANGSAPHPERRPNGYALGLVSGGSAQESQGNTGLPDVELLSHELKGVCPEPPGLDDPLAQDGAGVS
# System: [^3H]NECA-bound A2AR
# Experiment: Thermostability assay of detergent-solubilised receptor with [3H]NECA bound (ligand plus format)
# Assay type: physicochemical, human
# Description: […]. After solubilisation in DDM, A2AR was bound to Ni^2+-NTA resin, washed to reduce the DDM concentration and then eluted (see Methods). […]. An aliquot of E. coli cells (14 mL) was thawed on ice and resupended in 500 μL of buffer A [50 mM Tris–HCl (pH 7.4), 0.4 M NaCl, 250 μg/mL lysozyme (Sigma) and 1 mg/mL DNase I (Sigma), supplemented with complete ethylenediaminetetraacetic acid (EDTA)-free Protease inhibitor cocktail (Roche)] and incubated for 1 h at 4 °C. Samples were then sonicated for 1 min at 4 °C using a cup-horn sonicator. The receptors were solubilised by adding 1% DDM and incubated for 1 h at 4 °C. Insoluble material was removed by centrifugation (5 min, 13,000g, 4 °C). The solubilised receptors were partially purified with Ni-NTA agarose (Qiagen). Agarose beads (300 μL) pre-equilibrated in buffer A were added to 700 μL of solubilised receptor. […].
# The sample was incubated for 45 min at 4 °C, then 30 min at the specified temperature and then 30 min at 4 °C. Receptor-bound and free radioligands were separated as previously described on mini gel-filtration columns.[26] Receptor-bound ligands were transferred to a 96-well plate (PerkinElmer) and mixed with 200 μL of Optiphase supermix (PerkinElmer). The bound ^3H-labeled ligand was determined using a 1450 Microbeta Trilux counter (1 min per sample).
# For all the thermostabilisation studies carried out in our laboratory, the apparent Tm is the temperature for which 50% of the solubilised receptor remains folded after 30 min of incubation. The rate constant of the protein denaturation is a function of the temperature, and consequently, thermal denaturation of a protein can be compared to a chemical reaction for which the rate of the reaction is dependant on the temperature. Arrhenius established that any chemical reaction is temperature dependant. […]. The reference measurement representing the total binding activity of the sample A0 was considered to be measured at 4 °C. From the graphical representation t = Log10(t1/2) (Fig. 2c), we could extract a half-life for each construct at any temperature to define the improvement in stability of the various mutants compared to WT A2AR.
Molecule,"Apparent Tm in DDM, Single measurement","Apparent Tm in DM, Single measurement"
B1,46 °C,–
B2,45 °C,–
B3,–,44 °C
B4,45.5 °C,–
B5,46 °C,–
B6,–,44.5 °C
B7,45.5 °C,–
B8,–,44.5 °C
B9,41.5 °C,–
B10,46 °C,–
